Kd data for one molecule are collected here from patent EP3741773A1.

The target of this test is meditope-enabled trastuzumab Fab fragment. Put plainly: SPR. For orientation: Surface plasmon resonance follows binding to a sensor surface in real time, without labels.
meditope-enabled trastuzumab Fab fragment, sequence (chain, as listed by the source, chain 1 of 2): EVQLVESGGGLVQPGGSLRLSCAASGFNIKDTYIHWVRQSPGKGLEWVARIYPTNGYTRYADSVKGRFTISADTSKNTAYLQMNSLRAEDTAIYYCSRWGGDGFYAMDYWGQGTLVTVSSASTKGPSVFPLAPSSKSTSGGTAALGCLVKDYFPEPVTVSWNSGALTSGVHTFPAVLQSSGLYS
meditope-enabled trastuzumab Fab fragment, sequence (chain, as listed by the source, chain 2 of 2): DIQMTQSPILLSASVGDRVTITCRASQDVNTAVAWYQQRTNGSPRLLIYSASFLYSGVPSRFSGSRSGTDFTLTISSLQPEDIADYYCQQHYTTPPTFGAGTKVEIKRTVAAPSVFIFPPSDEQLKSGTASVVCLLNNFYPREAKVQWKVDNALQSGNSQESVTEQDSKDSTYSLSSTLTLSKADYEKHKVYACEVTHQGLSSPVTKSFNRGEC

B1: cQFD meditope (peptide)
peptide: CQFDLSTRRLKC
modifications: not checked
In general, Kd refers to the concentration at which binding is half-saturated. A lower Kd goes with a tighter complex. Regarding B1, the Kd amounted to 1000 nM.
